The values below come from US20190248900A1 (Y BIOLOGICS, published 2019).

In general, Kd refers to the equilibrium constant for the complex coming apart. A word on the koff: it is the first-order rate constant of dissociation. The kon is the second-order rate constant of association. In general, EC50 refers to the midpoint of the concentration-response curve. What is called IC50 is the concentration at which inhibition is half-maximal.

One assay has as its target T1, monkey PD1 protein (monkey).
T1 construct: also called monkey PD-1 proteins
The experiment in a line: SPR ProteOn XPR36; format for monkey PD1 not described.

Assay [1] addresses T2, human PD-1 (NM_005018.2) over-expressed on cells (human, UniProt Q15116 25-288). The experiment in a line: cell-based or functional assay.
Assay [2] addresses T3, PD1-hFc (human, UniProt Q15116 25-170).
T3 construct: extracellular domain; also called PD1-hFc protein; Human PD-1-Fc (S1420, Y-Biologics)
Briefly: SPR ProteOn XPR36, PD1-hFc immobilised, antibody as analyte. As to the method:
(§1) A ProteOn XPR36 (BioRad) instrument was used. The GLC sensor chip (BioRad) was mounted on the instrument and washed with PBST buffer, and the carboxymethyldextran surface was activated with an EDC/sulfo-NHS mixed solution. PD1-hFc dissolved at a concentration of 5 ug/ml in a 10 mM sodium acetate buffer solution (pH 5.0) was injected and immobilized on the GLC sensor chip.
(§2) In order to deactivate the activated carboxyl groups that remain unreacted with the PD1 protein, 1 M ethanolamine was flowed and 10 mM glycine (pH 2.0) was injected in order to wash proteins that remain unbound to the sensor chip.
(§3) The equilibrium dissociation constant (KD) was calculated by plotting and fitting the sensogram data in the equilibrium state depending on concentration.

The target in assay [3] is T3, PD1-hFc. The experiment in a line: competition ELISA: PD1-Fc coated, PDL1-His as binder, antibody as competitor. As to the method:
Human PD-1-Fc (S1420, Y-Biologics) or PD-L2-Fc (#10292-H02H, Sino) was added to wells of a 96-well immuno microplate (#439454, Thermo) and then washed three times with PBS containing 0.05% tween-20 (#P9416, Sigma-Aldrich), followed by allowing to stand in a cleaning solution containing 4% skim milk (#232120, Becton, Dickinson and Company) at room temperature for 1 hour to block non-specific binding. […] After the resulting product was subjected to the same washing method as above, the anti-Biotin-His antibody (#MA1-21315-BTIN, Thermo) diluted to 1:2000 was added to the well of the microplate, allowed to react at room temperature for 1 hour, streptavidin poly-HRP antibody (#21140, Pierce) diluted to 1:5000 was added to the well of microplate, reacted at room temperature for 1 hour and then washed in the same manner. 100 ul of a TMB substrate solution (#T0440, Sigma-Aldrich) was added to the reaction product, light was shielded, and the reaction product was allowed to stand at room temperature for 3 minutes, 50 μL of 2.5 M sulfuric acid (#S1478, Samchun) was added to stop the reaction, and absorbance was measured at 450 nm using a spectrophotometer (*GM3000, Glomax® Discover System Promega).
(In general: In an ELISA, binding on a coated surface is turned into a signal by an enzyme label.)

The target of assay [4] is T2, human PD-1 (NM_005018.2) over-expressed …. The experiment in a line: flow cytometry, 18 nM, over IgG. (In flow cytometry, cells or beads pass a laser one at a time.)
The target of assay [5] is T3, PD1-hFc. The experiment in a line: ProteOn XPR36; legend names PD1-hFc, the sheet names the immobilised protein PD-1 C-his.
The target in another assay is T4, rat PD1 protein (rat, UniProt D3ZIN8 25-169).
T4 construct: also called rat PD-1 proteins
T4 sequence: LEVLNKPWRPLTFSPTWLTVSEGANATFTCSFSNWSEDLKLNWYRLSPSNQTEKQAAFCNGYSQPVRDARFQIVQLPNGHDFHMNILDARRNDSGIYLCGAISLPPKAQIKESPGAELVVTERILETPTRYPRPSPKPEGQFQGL
The experiment in a line: SPR ProteOn XPR36; format for rat PD1 not described.

The target in assay [6] is T3, PD1-hFc. The experiment in a line: SPR ProteOn XPR36, PD1-hFc immobilised, antibody as analyte; parent antibody, Example 4 text (FIG. 9), not the Table 12 run. As to the method:
as §1, §2, §3

B1: PD1-45D6 (antibody, V domains shown)
VH: QVQLVESGGGVVQPGRSLRLSCAASGFTFSSYAMHWVRQVPGKGLEWVAVISYDGNDKYYADSVKGRFTISRDNSKNTLYLQMNSLRAEDTAVYYCVPTTFEYWGQGSQVTVSS
VL: DIVMTQTPLSLPVTPGEAASISCRSSQSLLDSDDGKTYLDWYLQKPGQSPQLLIYTLSYRASGVPDRFSGSGSGTEFNLRISRVEAEDVGIYYCMQRVEFPFTFGQGTKLDIK
notes: scFv-phage in the screening ELISA; whole IgG in the other assays
For B1, the values for the Kd with monkey PD1 protein, in the assay with PD1-hFc [5] and with rat PD1 protein were 0.001 nM, less than 0.001 nM and 2.39 nM, respectively. For the same molecule, the values for the koff in the assay with monkey PD1 protein, with PD1-hFc [5] and in the assay with rat PD1 protein were 1e-07 s⁻¹, less than 1.07e-07 s⁻¹ and 0.000133 s⁻¹, respectively. The association rate constant (kon) with monkey PD1 protein came out at 154000 M⁻¹ s⁻¹; with PD1-hFc [2], 270000 M⁻¹ s⁻¹; with rat PD1 protein, 55400 M⁻¹ s⁻¹. This molecule returned an EC50 in assay [1] of 1.88 nM. Besides, the IC50 in the assay with PD1-hFc [3] was 3.72 nM. Further, in assay [4], the Fold came out at 286.

B2: PD1-49A2 (antibody, V domains shown)
VH: QVQLVESGGGVVQPGRSLRLSCAASGFTFSSYAMHWVRQAPGKGLEWVAVISYDGSNKYYADSVKGRFTISRDNPKNTLYLQMNSLRAEDTAVYYCTTTTFDSWGRGTLVTVSS
VL: DIVMTQSPLSLPVTPGEPASISCRSSQSLFDSDDGNTYLDWYLQKPGQSPQLLIYTLSHRASGVPDRFSGSGSGTDFTLKISRVEAEDVGIYYCLQRMGFPYTFGQGTKVEIK
notes: scFv-phage in the screening ELISA; whole IgG in the other assays; also called Parent 49A2
Turning to B2, the Kd in the assay with monkey PD1 protein is 0.001 nM; with PD1-hFc [6], 0.019 nM; in the assay with PD1-hFc [2], 0.237 nM. The koff with monkey PD1 protein came out at 1e-07 s⁻¹; in the assay with PD1-hFc [2], 9.37e-05 s⁻¹. In addition, the values for the kon in the assay with monkey PD1 protein and with PD1-hFc [2] were 168000 M⁻¹ s⁻¹ and 395000 M⁻¹ s⁻¹, respectively. Besides, in the assay with PD1-hFc [3], the IC50 turned out to be 3.92 nM. This molecule returned a Fold in assay [4] of 222.
